Source: paper PMC12048173

Target: Full-length Stigmatella aurantiaca bacteriophytochrome 2 (SaBphP2), Pr state (Stigmatella aurantiaca)
Test: cryo-EM structure; single-particle cryo-EM, Spotiton nanowire grid, 0.4 mg/ml, pre-illuminated with 740 nm light (pure Pr state); global resolution 6.0 Å; subunits fitted as rigid units, not refined

stoichiometry N: 2
Substance: Full-length Stigmatella aurantiaca bacteriophytochrome 2 (SaBphP2), Pr state (natural protein)
